# Experimental data taken from the DeepSol protein solubility set.
# Test: soluble on expression in E. coli; label from the status in PepcDB or PDB records
row,Sequence,soluble on expression in E. coli
1,MSLQRSYCYQLTRRFCQSHEHTKLAKWLNINSKLNPFRPDPPVGGSPFLHGVGDEDKPVYIPQDVRVGHTFVVGTTRVGKTRLASILINQDIRNGDAVIVVDPKGDQDLVRDMVAACKVSGRTEDFKIVHLGFPEQSAQYNPLKKFDQISEVATRITDAISAEGEGKQFAAFAWKYVNIVAICLEEMNQPITYQTIAFYISRLEQLLMSYADNILPNHYLNYHQEIDDIIEEHDSKIGKNNKTKSPMERHQAVIQYIKDHINKTIKSNNAEALHDQILIDLYDAAIMDKHYYDKITASVGPVLSEINKSNASKILSSKAQPGDIELMDVIKNKKVLYIGLDSLTNPNIAQAVGKAFLSDLVSTAGKIYKEEGHHHHHH,soluble
2,AHHHHHHGSTWREILRKEGFLDLGEFIVELVYIDCPCEPIPPTLAIYDKKGDEWYKVEEAPNVQNYREAVEWAIEVLERIRDGENVKLVSLDGPAPPKVMKRLSLALQKLTE,not soluble
3,MSLKEGKEFEYLFWVGSMGSYDNRSQKIAISFAKLLNHAGVSFAILGNKEKNSGDTPRRLGNEFLFQELAEKNISEFEKNDVKKIVTIDPHAYNLFKNEYPDFGFEGEVYHHTEVLAELVKNGKLRPQHPLHETITFHDSCYLGRYNEVYDPPREILKAIPGVQLVEMERSRETGMCCGAGGGLMWMEEETGNRINVARTEQALAVNPSVISSGCPYCLTMLGDGTKAKEAEDQVKTYDVVELLAQSVLGADLKMGEKQEGHHHHHH,not soluble
4,MIARGSRAPRCPQCRVIDSYCLCAWRPTVAAESGMCLLMYDTEPMKPTNTGWLIADVIKDTYAFGWSRVEIDAHLRALLDDPQWQPYIVFPGEFVAQERVVAEVAREDGKRPLFILLDATWNEARKMFRKSPYLEKFPVLSLAPEQISRYRLRRSKRDDHFCTAEVAALCLELAGDVSASGVLDAYLDVFSAHYLGAKFQRPIDPDDVAHTYLKAFILEHHHHHH,not soluble
5,MSLLEVKNLRIEYPSRHGVHAAVKSLTLDIQRGEIVGVVGESGAGKSTVGNAVIDLLSPPGTIAGGEVYLNGEKISGLSPQAMREVRGSKIGFIFQDPMTSLNPLFTVEHQLTETIHANMQVSAEEAYQRALSLMKQVGIPQPENRLKQYPHQFSGGMRQRVVIAIALAGEPDLIIADEPTTALDVSIQDQILNLIRELCKKNNVGCMLVTHDMGVVSNVTDRVAVMYRGDLVEFGPTAKVLGTPEHPYTRSLISAVPRSDRKLDRFPLVSYIEEAKELKPLDVKSHWLGQSQDHRKYTGPLLKVENVNLRFVTKDSLFESRREYVQASNNVSFAVHEGETFGLVGESGSGKSTIARVIAGLYQPNAGRVTFEGIDLTALKSEHERRPLRRQMQMVFQNPYTSMNPRMKIFDIIAEPIRFHKLTRSESETRQIVNDLLEHVGLGKMAGLKYPHEFSGGQRQRISIARALATRPRLLICDEPTSALDVSVQAQILNLLKDLQDELNLTMLFISHDLPVIRQMCDRVGVMQMGTLLEVAPTEQLFTDPQHEYSKKLISLMPEFTGLRESTTAA,not soluble
6,MGSDKIHHHHHHMVIKEFNSLNTELVREIEKLTETCGKFDGIQEEVNLDDGFNFNKSMKWLFVLYEKDKVVSVVSIFAPKEEEGEISACTLPEYRRKGYFKELLSKAKNELLKYNVPKILFVCPKGSKQGEAVIKNSDAIYKFAEYTMNFNKNKFKAKGKYITKLAEANYNDLNKITKVASDVYSESYEQANSMMKNALESSDRLQFKLKLKEDYIGVVAAYFYHDKVSIFGVGILPEYRGRGFGREMMSMLLEYLIERDYDDIALEVDSNNKRAFELYKSIGFQIEREIDYYEEKINNTFYSY,not soluble
7,MGSDKIHHHHHHASPGPGEIANTQARHIATFFPGRMTGSPAEMLSADYLRQQFTQMGYQSDIRTFNSRFIYTTKDNRKNWHNVTGSTVIAAHEGRVPQQIIIMAHLDTYAPQSDADVDANLGGLTLQGMDDNAAGLGVMLELAARLKDIPTHYGIRFIATSGEEEGKLGAENLLKRMSDAEKKNTLLVINLDNLIVGDKLYFNSGKNTPEAVRTLTRDRALAIARRYGIAANTNPGRNPSYPKGTGCCNDAEVFDKAGISVLSVEATNWNLGKKDGYQQRVKNASFPNGNSWHDVRLDNQQHIDKALPGRIERRSRDVVRIMLPLVKELAKAEKTS,not soluble
8,MITVFHSDKLTRQPFFQDLINYLDQHDHVILREIKKAFPNVTGIDKAIESYVQAGYIRRENKRYGINLPLVSSDQQLALDTMLFVDTCSAMYENILAVVFETQLTNQTNRVMIKEKTNITRDDLTLANYFYRLKRGEKPSAEQMDLYDLLGDVNQEYALKYMTTFLLKFTRKDFVMQKRPDIFVEALVTLGYLKQVEPTTYQLLMTLDKESLTFIAP,not soluble
9,MDILVREVDVSEYVSIVVNRDSFNTIEYFICAPFSGQRLRGTARPGQTVVFRQQNLTNVVEKLGKNSFRCIVKADELPKSFQKSQEFVVARGRFQQFLKVAEGSRLSKLEPMSDTEMASNAIKDVREMAEQDLIGSRKTPFYEMFTRFAQQKVTSSDQEDTIENLHTRNNYEDIFDVLKSNLNKNEQLNDIDGRNNQKSDKMTEVDQTDKMHLTELEVKQKV,not soluble
10,MGSDKIHHHHHHMKFLPLIAMCLFLTGCVGDRSDLELFVTTTKAQHVAHIPPLKEPPRFEHFAYQAELMRSPFVPPSRELTEEVVDTSKDCLQPDLKRRKGRLETYPLDNLKMRGTLSEADTTWALVETNDGSVYRMGTGEYLGLFNGRISKVTSQNVEVVELIPDGSGCWSERTSNLELSGE,not soluble
11,MGSDKIHHHHHHMNITSKLNQIIQECLVNRDSDLFIMPRFDKYQLLYRDAGGYRKSALIDRDEAEQIMMYIKYRADMGISERRRPQSGAMTWLNRQGELVNLRISTVGDFLDRPSMVIRFIYVLKQDEHILDSESMEKIQLATKLRGLMVFSGPMGSGKTTLIYEVARKLSETKMVMSIEDPVEIREHNFLQLQVNEKSGMSYQELLKNGLRNRPDVFIIGEIRDGKTAEIAIQAALSGHLVLTTVHSKSTQGVWNRIVELGVREEHLKEALTAVIYQRMIPAKVGDLKIMAEIKSFHPALKGTKKKWRERLEEWKESGQITKEVFEDFQYG,not soluble
12,MGHHHHHHSHMNSRRRKAQFFLGTTNKRAKTVVLHIDGLDDTSRRNLCEEALLKIKGVISFTFQMAVQRCVVRIRSDLKAEALASAIASTKVMKAQQVVKSESGEEMLVPFQDTPVEVEQNTELPDYLPEDESPTKEQDKAVSRVGSHPEGGASWLSTAANFLSRSFYW,not soluble
13,MSLDSQQKLAAQVTTPLTLSGDNQQAVAIFDQADPRIRIVYFGFTRCPDVCPTSLAMLSAALNQVDDKTKAQLRPMFISLDPERDDAKLAAQYAHYFHPMIEGLSGSVATTNQIAQKYGVIFRKTELPNSELKYTLDHSSYFYFLQPDGTLINKVPHTQDPTPIVDAIKKVIQEGHHHHHH,soluble
14,MSLNIPDEGFFTLLTQGMRNRTVETLQRALYHTLRDAILQGTLTARCRLPGSRVMAERLHLSRNTVNAALEQLALEGYLTRSRQGTQVAPLASCRQEAGQMPPVVLPERLQRLPAAMRRDSPTLAFTPGMPAVNYFPLPLWRRLMDNVLREDGSALLGYGEAAGDPLLREAIARHLALSRGIRCDIRQIVITEGALEGVNLCASLLTNPGDSVWLEEPGYLGAWSGFQRAGLRVRGMAVDDEGMCIANGVAEPPRLIFTSPSHQYPCGSIMSAGRRLALVEYARRHGAWIVEDDYDSEFRHSGEPIPAMLGMVPDAPVVYLGTFSKTLFPALRIGFMVMPPALADAAQDAIGALLRGGHRAEQRALASFIEKGHYARHLAAMRRLYRKRQQQLREALAQEITVPCDVLGGGGGMHLTVAMEGVNDRTLAQQARQFQLAPAALSHFYLDPQRARSGLVLGYGNTSASRYLPALRTLNRLIAQHRRAEGHHHHHH,not soluble
